Source: the supplement of paper PMC12042874
± gives the uncertainty stated by the source.

assay: amyloid nucleation score (Sup35N fusion, yeast selection) (log enrichment); library NNK1; higher = more nucleation; inactive = no reads after selection
Method in brief: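 The nucleation score is a DiMSum log enrichment of output over input reads, centred on the mode score of non-aggregating sequences. Sequences under 100 input reads were excluded, and reads came from Illumina sequencing of plasmid inserts. Psi-negative yeast expressing Sup35N fused to peptides of 20 random codons were induced with 100 μM copper sulfate for 24 hours and grown 7 days at 30°C on medium lacking adenine and uracil. Random libraries had three technical output replicates.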

Substance | amyloid nucleation score
ERTMGLSVMWAIECCLRNPG | 2.05 ± 0.24
ERVLYIGFYTYVDNCFRLLK | -0.12 ± 0.34
ESFGRTISVTELSHMT | 0.487 ± 0.39
ESLRDRARWGNCMQILICSL | -0.055 ± 0.55
ESLREVTLYATKSLWMNLRL | -1.83 ± 1.1
ESRCRTLKIVLCCGFLSDWP | inactive
ESTSYCKSDYLVRFVFEDGL | -0.294 ± 0.39
ETHLIGVCYNRCL | 0.643 ± 0.42
ETLAFVLRFRNREDFCGGMV | 1.01 ± 0.64
ETLSFGKHLPRVHAFHHVRC | -0.671 ± 1.2
ETSPF | -0.03 ± 0.76
EVASGVCTRIRLYSRCEWKG | 2.84 ± 0.091
EVCFCEGEVKFWGKGAIFSR | -1.88 ± 1.8
EVGHFRSDVDLFWV | -1.04 ± 0.44
EVIVYKTFEDVSQRVRHNWN | 1.89 ± 0.22
EVLKVSHSF | -0.009 ± 0.46
EVLNIYLHNRLNVLFTELAS | -0.884 ± 1.4
EVRSSFYPSHYYRALRDL | -1.37 ± 2.4
EVSIFGDRIHIELHLVGEVL | -1.12 ± 2.1
EWACFRGAYPAYSDLFR | -0.327 ± 0.67
EWYLIYGGTRSGLIYRSYAR | 0.109 ± 0.38
EYLAFDVPNWVGFLGSLWNM | -0.064 ± 0.8
EYWGRGEVRADMWRRWIGW | 1.23 ± 0.4
FASASLLFSKPESG | -1.41 ± 2.4
FASMIFSRASSSSDNIFFRN | 0.361 ± 0.22

Substance | amyloid nucleation score
FASWFFMCRDGGLIM | -0.573 ± 0.66
FATAGKFVY | -1.23 ± 1.2
FAWLGCFSWTLNFWDKYMRG | -0.856 ± 1.4
FAYGI | -0.633 ± 0.62
FCDRNIIVCSELGKGWLWLR | 1.4 ± 0.25
FCLYISTIDID | 0.556 ± 0.59
FCNSALLSQLGFLKTWDQRG | -0.604 ± 1.6
FCPNHHNCVISCEWHSGALR | 2.51 ± 0.13
FCPTVETYNVW | 2.12 ± 0.14
FCRKSQEKYWVPFK | -0.667 ± 1
FCSSSLFHKVTLG | -0.043 ± 0.77
FCVRICNCRIWCLCSLTKSL | -0.624 ± 0.46
FDAAIVLCSDVSIKGCLSRN | 1.27 ± 0.27
FDFYSLRRGGVNYRSLLQVI | 0.25 ± 0.84
FDGFNFISWIVR | 2.06 ± 0.11
FDRFCFIIIVQYSFHG | 1.35 ± 0.76
FDSLVSREFVP | -0.887 ± 1.5
FEFDNR | -0.003 ± 0.53
FELICRW | 0.516 ± 1.1
FEVSGMCRVQVVTYNFFSSS | 6.99 ± 0.088
FEWRFPHQR | -0.025 ± 0.64
FFCSNDLSFVAELILINRQV | 0.87 ± 0.58
FFDSRFLFDSRTGSMYA | -1.71 ± 1.5
FFDYGDAWSFHRMNNWDVLY | -0.935 ± 0.62
FFFKAFDLATTSLGRYNMCN | -0.66 ± 0.52

Substance | amyloid nucleation score
FFGGNSAVVVIRWMSRSGHW | 0.489 ± 0.64
FFILW | -0.75 ± 1.2
FFISALLNSSFGEFTFGSVK | -0.432 ± 0.65
FFKNLCSRGCLCSYGMVQTV | 0.396 ± 0.58
FFLMIQSVT | 0.84 ± 0.47
FFMLFRCGF | 0.333 ± 0.87
FFRVLFFTFLAWYVELKWQL | -0.201 ± 0.78
FFVGLPYTNSYHIPHVF | inactive
FFVKMHIFSFFQVATVVYMH | 0.043 ± 0.33
FFVVMVIDNKHPQQENSRIR | 1.74 ± 0.34
FFWYPTFISFDRKFEVTIGP | 5.07 ± 0.053
FGAFYVGDHG | -1.7 ± 1.3
FGCTKANT | -0.657 ± 1.1
FGHGV | -0.626 ± 1.6
FGICKYFNRFVMNIRSVDES | -0.618 ± 0.52
FGLTCRLHKAVFRFYNKRTS | inactive
FGPGCCIFL | 7.481 ± 0.054
FGQSQPCDVTRENFCKEACN | -0.028 ± 0.9
FGSSVSAVNFRVV | -0.448 ± 0.4
FGWRISILLVPHRLFRGLPQ | -0.85 ± 1.9
FGYRMAYGSHVFVHSYRTEP | 2.42 ± 0.24
FGYVDPRQCDISEHLPLSTV | -0.345 ± 0.61
FHGSGESVNTDTMLTLYISV | -0.157 ± 0.54
FHHMVLE | -0.783 ± 0.54
FHYWFIIKVPTWMVYRDLTA | -0.203 ± 0.34

Substance | amyloid nucleation score
FIAQLYVNEMFDSLTLRRGD | 0.415 ± 0.33
FICRFDVHWHSGMFSLYPWC | 0.682 ± 0.47
FIDRIYSIVYGVGGCMMSLI | 0.008 ± 0.47
FIEHQTRSFDKILSYAWLEA | 0.379 ± 0.61
FIISSTQPRCRAPLTS | -0.165 ± 0.56
FIIWHELWKVMWSSTALSLD | 0.769 ± 0.69
FINDYMIQYSLHLQVLMST | 3.95 ± 0.074
FIRGLCNVLGCSR | 1.04 ± 0.24
FISRCSFAGSCVK | -1.27 ± 1.7
FIYLVLLSR | 1.32 ± 0.23
FKEDITFADGISDWSCQYTM | inactive
FKHDYKFEGVCRVNDFLMGF | -0.115 ± 0.9
FKSILRYPADRKMS | 0.997 ± 0.76
FKVIYARFVTIWVAVRRAFL | 0.051 ± 0.69
FKVVF | -0.909 ± 1.9
FKYALKTSCLLIVQDGGSMR | -0.023 ± 1.4
FLAIILSWPFSAQFGFNVEG | 0.533 ± 0.62
FLARNFCIC | 5.67 ± 0.064
FLCHWLYFRNSYGGYVSRW | 1.92 ± 0.4
FLCLLMFPIRHRL | 0.004 ± 0.33
FLDASVDKSLSYPGHIVAFR | -1.57 ± 1.7
FLEFAYVVFKILEKNGGLSY | -1.56 ± 0.86
FLFFRS | 4.62 ± 0.086
FLGLNQLNFWFGAS | 7.845 ± 0.045
FLGTI | -1.08 ± 2.7

Substance | amyloid nucleation score
FLHFVYRI | -0.578 ± 1
FLLLCRSFFSARTILRCTMG | 0.072 ± 0.81
FLMFQGSYIYRNTGFYSSSD | -0.176 ± 0.95
FLNLGSSDQSHYSCTKEWSH | -0.157 ± 0.51
FLNNTGAQSKLFLDVSVRQG | -0.065 ± 0.86
FLPRSYCVFSWFHLSVSTAR | inactive
FLQFF | -0.656 ± 0.47
FLQNMSVILTIMNDIKIMED | 6.161 ± 0.047
FLTAAWTSGHDGREFSPRPF | 2.61 ± 0.16
FLTIYGLNPSDYVGKVRQRD | 0.236 ± 0.34
FMHAGIYL | 0.043 ± 1
FMIVKFLIL | 1.5 ± 0.26
FMKSKAAAYS | -0.247 ± 0.63
FMLVMFYWIYFNYSNVFRD | -0.669 ± 0.78
FMLYTTVTERAWRHLN | 0.395 ± 0.36
FMRMFVIIKHHVEVRRPRFI | 0.413 ± 0.7
FMRPVYHYMPSMTSYVSLDT | inactive
FMTSDPYVLIHQALVRINEY | 4.58 ± 0.095
FNAAYIAGVGNLMTWDNSSN | -1.07 ± 0.61
FNFMFAKDGGSDTFLRFDRV | 4.83 ± 0.11
FNFRYPKDRGVSIVGCNFPM | -0.065 ± 0.51
FNGGNTFVCVSLDTCWNGWY | 7.54 ± 0.085
FNIHCVSSA | -0.015 ± 0.47
FNISFCIASSYVNTIGKQQG | 3.32 ± 0.12
FNLWIP | 2.13 ± 0.17

Substance | amyloid nucleation score
FNPLRVNYGLWDRSAR | 0.248 ± 0.83
FNVALFMEI | 1.07 ± 0.27
FNYEGYNMSCCGYRQFMEFG | 5.87 ± 0.073
FPCLTSSTSGYWSLI | 1.32 ± 0.12
FPFAYGVSESQSSVIHVLDV | -0.063 ± 0.26
FPLAIVLIVN | 0.059 ± 0.39
FPSNPYPNLPNMDVKRSNAF | inactive
FPYGSVIVVFVDFWYRLSSV | -0.343 ± 0.34
FQHTLGRKA | 0.438 ± 0.68
FQMLF | -0.752 ± 0.7
FQMNSCNWSVTGRIVFPDVY | 1.58 ± 0.42
FQSISGFSATHWIFFMEGTY | 0.216 ± 0.45
FRALKLEAIPAKVGAPYLVP | 0.045 ± 0.4
FRFGTA | 0.39 ± 0.49
FRGFVVGGGT | -0.664 ± 0.61
FRIVGSRMFVLLLCYVSSGR | 0.241 ± 0.27
FRLDNLRCTWVFRYPIGESS | 1.17 ± 0.73
FRLSWHSYNSMWINTVTSPQ | 2.75 ± 0.078
FRNGDGVQPWLTWHAV | 1.28 ± 0.33
FRQPGYMCEIRVVGFGPKPL | -0.274 ± 0.9
FRRMVTVNEAWHHRKAGSAN | 1.47 ± 0.65
FRSFLVPACYHGFGDGYMFF | -0.439 ± 0.77
FRSVGVYAISNLYGHSRYFS | -0.533 ± 0.42
FRSVSGNMYTLLFRIE | 1.62 ± 0.24
FRTHVGSDCGL | -0.026 ± 1

Substance | amyloid nucleation score
FRVVCVHSLSMGNVFNFDWR | 4.77 ± 0.08
FSCCILPCSLSHSMVFLGSG | 8.064 ± 0.08
FSCGCIRYFSG | -0.115 ± 0.91
FSCLNSFKRVFNFNIPASVC | -0.863 ± 1
FSDNRASPESKPQCVTGRRD | 0.669 ± 0.31
FSEVTLFFPKDAILEFSARC | -0.353 ± 0.79
FSFRRFCLCMLREGHTRQLG | -0.957 ± 2.4
FSFSIAMVNLVEDATVDCAG | -0.048 ± 0.31
FSFYMLRFFSKTSYYSLMSF | -0.721 ± 0.27
FSGCGWYRTVDYGGP | inactive
FSGQAITLVCWIVGQILPFS | inactive
FSHAGD | -0.494 ± 0.71
FSISKLFGLNADTVHTRHKK | 0.073 ± 0.38
FSKTAGEVAYSLTESTDVRS | -1.26 ± 0.88
FSMGGYFLFLCNNFTLYHIS | 7.598 ± 0.07
FSMIMSLDVL | -0.397 ± 0.4
FSNLKISWECNRCGSYYDCE | -0.122 ± 1.4
FSNRWFC | -0.578 ± 0.31
FSQLYMGMYPGHNLLKYHSG | -0.275 ± 0.22
FSQVSEEIIGVFLSISYCIL | 2.93 ± 0.074
FSSICSRMEEGMTE | 0.001 ± 0.34
FSSRWSI | -0.138 ± 0.6
FSSSWELVRLYTASCKHDSK | 0.782 ± 0.2
FSTAM | 0.895 ± 0.79
